In patent US20260258115A1 (MAPP BIOPHARMACEUTICAL, published 2026):

B1: ADI-14575 (antibody, V domains shown)
VH: QVQLVQSGAEVKKPGSSVKVSCKASGGTFSSYTISWVRQAPGQGLEWMGRIIPILGIANYAQKFQGRVTITADKSTSTAYMELSSLRSEDTAVYYCARPSSSSFAFDYWGQGTLVTVSS
VL: QSVLTQPASVSGSPGQSITISCTGTSSDVGGYNYVSWYQQHPGKAPKLMIYDVSNRPSGVSNRFSGSKSGNTASLTISGLQAEDEADYYCSSYTSSSTPVVFGGGTKVTVL
B2: ADI-21048 (antibody, V domains shown)
VH: EVQLVESGAEVKKPGASVKVSCKASGYTFSSHAISWVRQAPGHGLEWMGWISVFNGNTNYAQKFQGRVTMTTDTSTSTAYMELRSLRSDDAAVYYCAREVIGVGEFYFDYWGQGTLVTVSS
VL: QSVLTQPPSVSVAPGQTARITCGGNNIGSKSVHWYQQKAGQAPVLVVYDDSDRPSGIPERFLGSNSGNTATLTISRVEAGDEADYYCQVWDSSGDFHVFGTGTKVTVL
B3: ADI-21009 (antibody, V domains shown)
VH: QVQLVQSGAEMKTPGASVKVSCKASGYSFSNYGFTWVRQAPGQGLEWMGWISGYSAKTNYAQDLQGRVTMTIDTSTSTSYMELRSLRSDDTAVYYCARDPLGYFGSGTYRGGAFDFWGQGTTVTVSS
VL: QSALTQPASVSGSPGQSITLSCTGTNNDVGSYHLVSWYQQYPGKAPKLVIYEVTKRPSGVSNRFSGSKSGNTASLTISGLQPEDEADYYCCSYAGDRRIFGGGTKVTVL
notes: also called Ab 260
B4: ADI-20994 (antibody, V domains shown)
VH: QVQLVQSGAEVKKPGASVKVSCKASGYTFSSNVIGWVRQAPGQGLEWMGWISTNNGNTKYGQKFQGRVTMTTDPSTSTAYMELRSLRSDDTAFYYCARESLGMGGFYFDYWGQGTLVTVSS
VL: QPVLTQPPSVSVAPGQTARITCGGDNIGSKSVHWYQQKPGQAPVLVVYDDSDRPSGIPERFSGSNSGNTASLTISRVEAGDEADYCCQVWDSGSDLWVFG
B5: ADI-20965 (antibody, V domains shown)
VH: QVQLVQSGAEVKKPGASVKVSCKASGYNFTNYGISWVRQAPGQGLEWMGWISTSNGNTHYAQKSQGRITLTTDTSTNTAYMEVRSLRSDDTAVYYCAREGPESTYDWYHFDSWGQGTLVTVSS
VL: QSVVTQPPSVSVAPGQTAKITCGGNNIGSKTVHWYQLKAGQAPVLVVYDDSDRPSGIPERFSGSNSGNTATLTIRRVEAGDEADYFCQVWESASDHWVFGGGTKLTVL
B6: ADI-14392 (antibody, V domains shown)
VH: EVQLLESGAEVKKPGSSVKVSCKASGGTFSSYGISWVRQAPGQGLEWMGGIIPIFGTSNYAQKFQGRVTITADESTSTAYMELSSLRSEDTAVYYCALDSSGRARYYAMDVWGQGTTVTVSS
VL: DIQVTQSPATLSLSPGERATLSCRASQSVSSYLAWYQQKPGQAPRLLIYDASNRATGIPARFSGSGSGTDFTLTISSLEPEDFAVYYCQQRNNWPPTFGPGTKVEIK
notes: full-length IgG; also called Ab 59
B7: ADI-14584 (antibody, V domains shown)
VH: QVQLVQSGAEVKKPGASVKVSCKASGFTFTNYGTSYGITWVRQAPGQGLEWMGWINTSNGNPNYAQKLQGRVTMTADTSTSTAYMELRSLISDDTAVYYCARGHRMVRGVVPTGYYGLDVWGQGTTVTVSS
VL: DIQLTQSPSSLSASVGDRVTITCRASQSISSYLNWYQQKPGKAPKLLIFAASNLQSGVPSRFSGSGSGTDFTLTISSLQPEDFATYYCQQSYITPWTFGQGTKVEIK
notes: also called Ab 113
B8: ADI-24856 (antibody, V domains shown)
VH: QVQLVQSGAEVKKPGASVKVSCKASGYTFTSYGISWVRQAPGQGLEWMGWISAYNGNTNYAQKLQGRVTMTTDTSTSTAYMELRSLRSDDTAVYYCARAGIVVVPKYYYYMDVWGKGTTVTVSS
VL: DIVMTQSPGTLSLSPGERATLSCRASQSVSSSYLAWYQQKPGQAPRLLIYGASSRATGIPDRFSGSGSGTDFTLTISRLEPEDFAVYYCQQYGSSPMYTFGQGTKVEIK
notes: full-length IgG
B9: ADI-21031 (antibody, V domains shown)
VH: EVQLVESGPGLVKPSQTLSLTCTVSGGSISNSNYFWSWIRQPAGKGLEWIGRVHSSGTTSYNPSLKSRITISVDASESQFSLNLTSVTAADTAIYYCARDSSDWGLGWYFDLWGRGTLVTVSS
VL: ETTLTQSPATLSLSPGERATLSCRASQSVTFYLAWYQHKPGQAPRLLIFDASKRATGIPARFSGSGSGTDFTLTISSLEPEDFALYYCQQRSDWPQTFGQGTKVDIK
B10: ADI-14395 (antibody, V domains shown)
VH: EVQLVESGGGVVQPGRSLRLSCAASGFTFSSYAMHWVRQAPGKGLEWVAVISYDGSNKYYADSVKGRFTISRDNSKNTLYLQMNSLRAEDTAVYYCARDDTYYYDSSGYSAPFDYWGQGTLVTVSS
VL: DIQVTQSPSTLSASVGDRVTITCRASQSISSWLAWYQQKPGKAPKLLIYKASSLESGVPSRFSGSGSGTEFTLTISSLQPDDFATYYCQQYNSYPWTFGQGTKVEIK
notes: also called Ab 62
B11: ADI-14366 (antibody, V domains shown)
VH: QVQLVQSGTEVKKPGASVKVSCKASGYTFNMYGVSWVRQAPGQGLEWMGWISAYNGNTNYAQKFQGRVTMTIDTSTTTAYMELRSLRSDDTAMYYCARDFQAEEPLSNWFDPWGQGTLVTVSS
VL: DIVMTQTPSSLSASVGDRVIITCRASQSISRYINWYQKKPGKAPKFLIYAVSSLGSGVPSRFSGSGSGTDFTLTISSLQPEDFATYYCQQSYSTPFTFGPGTKVDIK
notes: full-length IgG; also called Ab 34
B12: ADI-24861 (antibody, V domains shown)
VH: QVQLVQSGGGLVKPGGSLRLSCAASGFTFSSYSMNWVRQAPGKGLEWVSSISGGSSYIYYADSVKGRFTISRDNAKNSLYLQMNSLRAEDTAVYYCAREAYYYDSSGLKWFDPWGQGTLVTVSS
VL: QSVLTQPPSVSGAPGQRVTISCTGSSSNIGAGYDVHWYQQLPGTAPKLLIYGNSNRPSGVPDRFSGSKSGTSASLAITGLQAEDEADYYCQSYDSSLGWVFGGGTKLTVL
notes: full-length IgG
B13: ADI-14394 (antibody, V domains shown)
VH: EVQLLESGGGLVKPGGSLRLSCAASGFTFSSYSMNWVRQAPGKGLEWVSSISSSSSYIYYADSVKGRFTISRDNAKNSLYLQMNSLRAEDTAVYYCARGSEYYFDYWGQGTLVTVSS
VL: QSVLTQPPSVSGAPGQRVTISCTGSSSNIGAGYDVHWYQQLPGTAPKLLIYGNSNRPSGVPDRFSGSKSGTSASLAITGLQAEDEADYYCQSYDSSLSVVFGGGTKVTVL
notes: also called Ab 61
B14: ADI-25577 (antibody, V domains shown)
VH: QVTLKESGGGLVKPGGSLRLSCAASGFTFSSYSMNWVRQAPGKGLEWVSSISSSSSYIYYADSVKGRFTISRDNAKNSLYLQMNSLRAEDTAVYYCARYSSSLGAFDIWGQGTMVTVSS
VL: QSALTQPPSVSGAPGQRVTISCTGSSSNIGAGYDVHWYQQLPGTAPKLLIYGNSNRPSGVPDRFSGSKSGTSASLAITGLQAEDEADYYCQSYDSSLSDVFGTGTKLTVL
notes: full-length IgG
B15: ADI-14579 (antibody, V domains shown)
VH: QVQLVQSGAEVKKPGESLKISCKVSGYSFTSYWIGWVRQMPGKGLEWMGIIYPGDSDTRYSPSFQGQVTISADKSITTAYLQWSSLKASDTAMYYCARPAHSSSWYGAFDLWGQGTTVTVSS
VL: DIQMTQSPSSLSASVGDRVTITCRASQGISNYLAWYQQKPGKVPKLLIYAASTLQSGVPSRFSGSGSGTDFTLTISSLQPEDVATYYCQKYNSAPLTFGGGTKVEIK
B16: ADI-21035 (antibody, V domains shown)
VH: EVQLVESGHEVKKPGASVKVSCKASGYTFPSYGISWVRQAPGQGLEWMGWIVPYNGNTKYAQRFQGRITMTTDSPTSTASMELRGLRSDDTAVYYCARVFGDGYSYGYEYWGQGTLVTVSS
VL: DIVLTQSPSTLSASVGDRVTITCRASQSISIWLAWYQQKPGKAPKLLIYKTSELVSGVPSRFSGSGSGTEFTLTISGLQPDDFATYYCQQGNSYSHTFGQGTKVEIK
B17: ADI-19467 (antibody, V domains shown)
VH: EVQLVESGGGLVKPGGSLRLSCAASGFTFSSYSMNWVRQAPGKGLEWVSSISSSSSYIYYADSVKGRFTISRDNAKNSLYLQMNSLRAEDTAVYYCASLSSSSELGYYFDYWGQGTLVTVSS
VL: QPVLTQPPSVSGAPGQRVTISCTGSSSNIGAGYDVHWYQQLPGTAPKLLIYGNSNRPSGVPDRFSGSKSGTSASLAITGLQAEDEADYYCQSYDSSLSGYVFGTGTKLTVL
notes: full-length IgG
B18: ADI-25565 (antibody, V domains shown)
VH: EVQLVESGGGLVKPGGSLRLSCAASGFTFSSYSMNWVRQAPGKGLEWVSSISSSSSYIYYADSVKGRFTISRDNAKNSLYLQMNSLRAEDTAVYYCARIRFDYGSGSYAFDIWGQGTMVTVSS
VL: QPVLTQPPSVSGAPGQRVTISCTGSSSNIGAGYDVHWYQQLPGTAPKLLIYGNSNRPSGVPDRFSGSKSGTSASLAITGLQAEDEADYYCQSYDSSLSGSVFGGGTKLTVL
notes: full-length IgG
B19: ADI-25559 (antibody, V domains shown)
VH: EVQLLESGGGLVKPGGSLRLSCAASGFTFSSYSMNWVRQAPGKGLEWVSSISSSSSYIYYADSVKGRFTISRDNAKNSLYLQMNSLRAEDTAVYYCARDAAAKYYFDYWGQGTLVTVSS
VL: QPVLTQPPSVSGAPGQRVTISCTGSSSNIGAGYDVHWYQQLPGTAPKLLIYGNSNRPSGVPDRFSGSKSGTSASLAITGLQAEDEADYYCQSYDSSLSGKVFGTGTKLTVL
notes: full-length IgG
B20: ADI-21060 (antibody, V domains shown)
VH: EVQLVESGGGLVKPGGSLRLSCEASGFRLSDYYMTWIRQAPGKGLECISYISGGSTFKSYSDSVKGRFTISRDNTNLYLQMNSLRVEDTAVYYCARAPYLIYYMDVWGKGTTVTVSS
VL: QPVLTQPPSVSGAPGQRVSISCTGSNSNIGAGYDVHWYQQLPGTPPKLLIYDNNNRPSGVPDRFSGSKSGTSASLAITGLQAEDEADYYCQSYDNRLSGSQVLFGGGTKVTVL
B21: ADI-19493 (antibody, V domains shown)
VH: QVQLQQWGAGLLKPSETLSLTCAVYGGSFSGYYWSWIRQPPGKGLEWIGEINHSGSTNYNPSLKSRVTISVDTSKNQFSLKLSSVTAADTAVYYCARLIENTRVGEYYFDYWGQGTLVTVSS
VL: not shown
notes: full-length IgG

Assays:
[1] = target: RSV prefusion F (preF), subtype A (respiratory syncytial virus, subtype A, UniProt P03420 26-513); experiment: BLI, IgG
[2] = target: RSV prefusion F (preF), subtype B (respiratory syncytial virus, subtype B); experiment: BLI, IgG
[3] = target: T1, RSV prefusion F (preF), subtype B (respiratory syncytial virus subtype B); experiment: BLI, IgG
T1 construct: also called Prefusion subtype B

[4] = target: T2, RSV postfusion F (postF), subtype A (respiratory syncytial virus subtype A, UniProt P03420 26-513); experiment: BLI
T2 construct: also called Postfusion subtype A; F deltaFP

[5] = target: T3, RSV postfusion F (postF), subtype A (respiratory syncytial virus, subtype A, UniProt P03420 26-513); experiment: BLI, IgG
T3 construct: also called F ΔFP; Postfusion subtype A

Binder | Kd [1] [nM] | Kd [2] [nM] | Kd [3] [nM] | binding result [4] | binding result [5]
B1 | 11.2 |  |  |  | 
B2 | 0.111 |  |  |  | 
B3 | 4.88 | 19.5 |  |  | 
B4 | 0.0894 | 0.109 |  |  | 
B5 | 0.121 | 0.533 |  |  | 
B6 |  |  | 72.5 | no binding | 
B7 |  | 0.476 |  |  | no binding
B8 |  |  | 4.91 | no binding | 
B9 | 1.07 | 1.5 |  |  | 
B10 | 24.9 |  |  |  | no binding
B11 |  |  | 18 | no binding | 
B12 |  |  | 0.461 | no binding | 
B13 | 11.5 |  |  |  | no binding
B14 |  |  | 44.2 | no binding | 
B15 | 7.54 | 3.73 |  |  | 
B16 | 10.3 |  |  |  | 
B17 |  |  | 37.7 | no binding | 
B18 |  |  | 35.7 | no binding | 
B19 |  |  | 33.3 | no binding | 
B20 | 0.426 | 0.349 |  |  | 
B21 |  |  | 22.6 | no binding | 
